According to the NTF2 design screens of Basanta et al. (2020):

test: protease stability score; higher = more stable; yeast display proteolysis, trypsin and chymotrypsin;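 also: relative to predicted unfolded state with 0 unfolded-like and 1 meaning tenfold more protease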

Point of comparison: “DEEKNLIIELVHLFLVAFWTGNEELLRHLADPDVRFEIDGREHHGREELEKHLEHWWMKIEHIEEKEIRVIDGRVHIDGHVRGTLIINGRENRISYDVEIHAEVIDGRFKYVKVKQK”, protease stability score 2.48. Against it:
- DDLEKWYEDIARLYHHNLLTGDEDVIHELLDPNVRLVVGDKHFHGRESVIEFLKRELTEIRIEDIKIKEVHWVGDFSINRGTLHIRINGVLFDVRSEVIFDVINGKIRRVTRIII — lower, 1.6
- SEEEEQSRKIFRLLYKVIETGDEDIFTKLFDPHARLIYNGKEYIGWEEAVQVLRHIRIDREELSVVRINNVNGQVHIHSVSRMDGEINGVEHHTRVELNFIVIKINGRWVIHTWEIRID — lower, 2.35
- SEEEETLRDALELVREVLETGDPHLSERLFDPDVRVIYGDKHYHGREYASEMIRFMGVKHFHIKSVRDVDGQVDIDTETHFNGKKYRMHLQTKKIDGKWHLRIIEFR — lower, 1.39
- DEDTEEVRKADKIYIHYLLTGDEHKNNRLADPNVRLHWNGREFHGMELFTEAFREIRHELRFDHITHHHLRMFNGRLDSDTRVDGDINGVRTIFEMKLTLLKVDGRWVLKSTEIR — lower, 1.26
- SEQEHFDRLAFKLLLHSIHTGDWRLLTEEFDPNTLIIIGEKIHHGMEFVREHIEVLGADHVDIEIHIRHVRHQGNKADMDMQVDIDIDVNGRRIRIRSRRRYISLKVDGRWVTTSLEIK — lower, 0.939
- DDDERDMDLALELIIRTIRTGDWELQSRLIDPHARLHIDGRDLHGMEEYVTILVEHWRRIKGVKVSITLHDRDVFDGVLHLDTEVELDFNGVRLHMKTEIISLKYNGRWFIKEIRVR — lower, 0.654
- SEKEERALELIKRFWESELTGNEDWLRHLADPDYLYILLIDGKEHNFHGMETWYEKINRIKGVQIDHLEIRHENVIGDKVEIDGRMDITVNGKRIDKRVELQYSVVDGRFKSVKITNI — lower, 0.809
- SDLEEVIRKHIEELEESRRTGDEESLWRLLDPNTLKVVGDKRIHGMEAVAEIETFHDRRVKNATDRLNLREVHTQGDKLTIRGELILDWDGVKINVHVRLEILKFDGRWIIHRIEVK — lower, 0.715
- SEDEEKAERLSRKVVHDLLTGDFKSLLEMFDPNVRVNINGVNNHGRHFFWHELYDELRRLGVDKIEVDLRSLQVYGDKVVLEMELRVNGKKITVEIHMKKVDGRWHIKEVTHE — lower, 1.04
- DEDEERVREFFELFFKALFTGDEEELKRLLDPHVKLIINGREFVGREQMTRLLNEIRVSWTELRIRRIERQGDKVIFDAEVHVERHQGDYHEQKTIKVILYMRKVDGRWLLESIEIR — lower, 2.38
- DEKRKVEERLLELIIEIFRTGDWEWYSELADPNVRVHQGEYHKHGREQASKHLLDELRHLGIKHIDERSYDVIDGQVYWHVRIEVGDKERQMHIRVRIVNGVLQHVHIEIH — lower, 1.17
- DEDERHMEKMWRDWVHARYTGDEHRLDELFDPDARMLIDGVDAVGREEVHRLLHKMLKRLGIKHIEHVRITHIEIQGDKIHIENEIRGIVGDKTTTVEVHLVIIKVDGQWRIRSVEEK — lower, 1.14
- DERTEYFIREAREMLRDWVTGDWKRLHELMDPNARQDVNGVKNVGRDELSEFFEKFRERFDVYELRITEERHQGNKFIVKGDFHSNQGEFTFHHELEVHIVVVNGQFKRIEMRIR — lower, 1.55
- SEDEEMNRLAIELLLRYMRTGDEHKLEELADPNVRIEVGDKESVGREVFLRFWMHLKKKLGIDVVEIELHEIKHYDGRVHSDTRFIMNVNGVEYRRDTEVVAHKVDGKWMLEHVHVE — lower, 0.92
- DEDERHTKILIDLLLHNSHTGDEHVLRHLFDPNVKIVIGDKELIGREYADQFIKRVDVIDHIEIKDWHTIGDKVHFHGETEGVIDGRKVHTHVKLEMKKFDGRWLIHRIVIR — lower, 1.95
- NELEKWVEQATREILRVMETGDPNETEKLIDPHVRREQGEFIYHGWENITHFMEHARFERYKLHDVDLQGDYVNLNGRLDGVYNGKKERTEVEFYVLKINGRWHVTSMHVH — lower, 1.28
- SEDQEAMDRAIKIFEEIVDTGNERLSRENMDPRTRIVFEGVHLHGREEAVRHHRELWKRVDVMEMRTEDYRFFDGRVHQTTRLHLNYNGREETYETRFLVEKVNGKWFIKSIIIV — lower, 0.272
- DEKEEILRQIMELMLRLLLTGDEDRLTELIDPNVRVVFEGRTYHGMDEVTELWKEIRIDSFRFRDVKNVGDKARLHGEQKVRVGNYSHEHKSEYQLFVVNGRAKSLEIRWH — lower, 1.31
- DETRELLDRLWERLVKALRTGDEDHVHDMLDPHVRIEIGDKILHGREALEVLWKRIDHISIHDFKLKRERRFENRIEVDGEVDGIVRIDGRENRHVTDTHYILVKIDGQWLIKTIHIK — lower, 2.29
- DDDEHNAHHAVEIWIHLLRTGDEHMLERMFDPNTRIRFNGREFHGREEAHRFIEELLRTLGVDHSHITIHDMKIQGNKVHVDTRLTLIVGDKTYSRNTHLVILKVNGRWWLHSMHFN — lower, 1.41
- DEDEEFWKELLRLFNEALITGDEDLLSHYADPNTRIRDENHKIHGRERYSRLMVKLGIDHVHLHSFTIIDGVAHIHLEWHQGDKTLDVRSYSRKFNGRWFLTHVRIK — lower, 1.05
- SEEEHEMERHEREFRDVAETGDERDWTNLADPNVRFEDEDEVLVGREDWHEYVRRVDHFHVRRLDYEHFSVIDGRIDIEGNMDIELNFDGQSHRMRVHVRIITTKINGVWLFESVHIQ — lower, 1.75
- DESTRDFRQFFKLLVEHFKTGDWRRLADLFDPNVRVEINGRELHGRENIALWLRDRFKHLGVDHVHMRIRDLEVQGDKIRIHVELEIRVGDKVFYHETVLVIEKFDGRWIVHEEEYK — lower, 1.49
- DEDRRDAEYARDIWTETLETGDEDLLHELMDPHVRIEIGDKETHGRENYVKKFIRMGVRLKHRNDKHVTIVNGRVHLFGEFHVIINGRHHDLRVEIVIEKVNGRWVVKSIHVH — lower, 0.688
